Residue numbers refer to the chain shown, from its start.
T1: CCR5 D95A, HA-tagged (human, UniProt P51681 1-352)
T1 sequence: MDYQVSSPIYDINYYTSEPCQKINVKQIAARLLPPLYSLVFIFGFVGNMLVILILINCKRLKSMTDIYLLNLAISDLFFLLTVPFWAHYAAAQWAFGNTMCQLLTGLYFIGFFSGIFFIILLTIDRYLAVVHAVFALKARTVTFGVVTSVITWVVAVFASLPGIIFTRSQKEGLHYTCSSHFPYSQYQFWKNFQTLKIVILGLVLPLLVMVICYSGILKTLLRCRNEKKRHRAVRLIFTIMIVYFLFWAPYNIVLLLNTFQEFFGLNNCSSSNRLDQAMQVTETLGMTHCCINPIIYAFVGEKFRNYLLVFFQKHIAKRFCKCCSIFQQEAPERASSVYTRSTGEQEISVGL

T2: CCR5 Y184A, HA-tagged (human, UniProt P51681 1-352)
T2 sequence: T1 sequence with A95D, Y184A

T3: CCR5 D11A, HA-tagged (human, UniProt P51681 1-352)
T3 sequence (looked up): T1 sequence with D11A, A95D

T4: CCR5 K22A, HA-tagged (human, UniProt P51681 1-352)
T4 sequence: T1 sequence with K22A, A95D

T5: CCR5 K26A, HA-tagged (human, UniProt P51681 1-352)
T5 sequence: T1 sequence with K26A, A95D

T6: CCR5 Q93A, HA-tagged (human, UniProt P51681 1-352)
T6 sequence: T1 sequence with Q93A, A95D

T7: CCR5 K191A/N192A, HA-tagged (human, UniProt P51681 1-352)
T7 sequence: T1 sequence with A95D, K191A, N192A

B1: macrophage inflammatory protein (MIP)-1β, recombinant human (ligand, UniProt P13236 24-92, looked up)
chain: APMGSDPPTACCFSYTARKLPRNFVVDYYETSSLCSQPAVVFQTKRSKQVCADPSESWVQEYVYDLELN
B2: RANTES, recombinant human (ligand)
chain: SPYSSDTTPCCFAYIARPLPRAHIKEYFYTSGKCSNPAVVFVTRKNRQVCANPEKKWVREYINSLEMS

What was measured:
Assay in all cases: cell-based or functional assay
[1] = molecular target: T1, CCR5 D95A, HA-tagged
[2] = molecular target: T2, CCR5 Y184A, HA-tagged
[3] = molecular target: T3, CCR5 D11A, HA-tagged
[4] = molecular target: T4, CCR5 K22A, HA-tagged
[5] = molecular target: T5, CCR5 K26A, HA-tagged
[6] = molecular target: T6, CCR5 Q93A, HA-tagged
[7] = molecular target: T7, CCR5 K191A/N192A, HA-tagged

Binder	relative % inhibition of NLluc/JR-FL entry into U87MG-CD4 cells by 2 µg/ml chemokine (wild-type = 100) [1]	relative % inhibition of NLluc/JR-FL entry into U87MG-CD4 cells by 2 µg/ml chemokine (wild-type = 100) [2]	relative % inhibition of NLluc/JR-FL entry into U87MG-CD4 cells by 2 µg/ml chemokine (wild-type = 100) [3]	relative % inhibition of NLluc/JR-FL entry into U87MG-CD4 cells by 2 µg/ml chemokine (wild-type = 100) [4]	relative % inhibition of NLluc/JR-FL entry into U87MG-CD4 cells by 2 µg/ml chemokine (wild-type = 100) [5]	relative % inhibition of NLluc/JR-FL entry into U87MG-CD4 cells by 2 µg/ml chemokine (wild-type = 100) [6]	relative % inhibition of NLluc/JR-FL entry into U87MG-CD4 cells by 2 µg/ml chemokine (wild-type = 100) [7]
B1	112%	68%	41%	12%	97%	97%	15%
B2	121%	36%	7%	-11%	100%	114%	18%
